How the values were obtained:
[1] = Dynamic light scattering (hydrodynamic radius, estimated molecular mass); assay type: physicochemical; conditions: for M (kDa) (Dynamic light scattering): calculated from measured RH using a protein calibration curve
Description: (§1) Molecular mass of purified streptavidin and its muteins was estimated by both gel filtration and dynamic light scattering studies. Gel filtration was performed on the Bio-Rad biologic workstation equipped with a Bio-Prep SE 100/17 column that had been calibrated with molecular mass protein markers (Bio-Rad). Molecular mass was also estimated from the hydrodynamic radius of the mutein obtained using a DynaPro MS dynamic light scattering instrument (Protein Solutions, USA) that had been calibrated with lysozyme. Protein samples (2-3 mg/ml in PBS) were passed through a 0.02 μm filter (Whatman Anodisc 13) immediately prior to measurement. The size distribution profile was analyzed using the manufacturer's Dynamics V6 software.

[2] = system: Biotin-conjugated bovine serum albumin; assay: Kinetic analysis by surface plasmon resonance BIAcoreX biosensor; assay type: binding; conditions: interaction with biotin
Description: FIG. 8: Kinetic parameters for the interaction between M4 streptavidin mutein and biotin as monitored by BIAcore biosensor. A. On-rate (ka) determination. ka is derived from association analysis. kd is the slope of the plot of In(Ro/Rt) versus (t−to) where Ro is the response at an arbitrary starting time to; Rt is the response at time t.
The kinetic parameters (both on- and off-rates for interaction with biotin) of streptavidin muteins were determined in real time using the surface plasmon resonance based BIAcoreX biosensor. Biotin-conjugated bovine serum albumin immobilized on CM5 sensor chip was used to study the reversibility of biotin binding (Qureshi, 2001).

proteinase K = assay: Proteinase K digestion of streptavidin and its muteins; assay type: biochemical; conditions: independent of the presence or absence of biotin; 5 μM proteinase K, 15 min, 30° C.
Description: Purified streptavidin and its muteins (30 μM monomer) were treated with proteinase K (Invitrogen, 5 μM) for 15 min at 30° C. in 50 mM Tris-HCl containing 5 mM CaCl2, pH 8.0. The reaction was stopped by precipitation with trichloroacetic acid (Ellison, 1995). Boiled samples of precipitated proteins were resolved by reducing SDS-PAGE. The same analysis was performed with streptavidin samples treated with biotin (1 mM final concentration) prior to proteinase K digestion.

[3] = Cross-linking reactions with sulfo-EGS; assay type: physicochemical; conditions: 10-fold molar excess sulfo-EGS, 30 min, room temperature
Description: Cross-linking of streptavidin and its muteins was carried out using sulfo-EGS [ethylene glycolbis(sulfosuccinimidyl succinate)] (Pierce) as the cross-linker. A typical reaction mixture (20 μl) contained the purified mutein (0.2 5 mg/ml) and sulfo-EGS (10-fold molar excess over the protein) in PBS. After 30 min at room temperature, the reaction was quenched with Tris-HCl (30 mM, pH 7.5). Aliquots of the cross-linking reaction samples were boiled and examined by SDS-PAGE. Lysozyme (Sigma, 0.25 mg/ml) was included in the study to help establish the optimal reaction conditions.

[4] = Apparent molecular mass by gel filtration (Bio-Prep SE 100/17); assay type: physicochemical
Description: FIG. 6: Gel filtration profiles of streptavidin muteins. FIG. 6A. […] Bovine gamma-globulin (158 kDa), bovine serum albumin (66 kDa), ovalbumin (44 kDa), myoglobin (17 kDa) and vitamin B-12 (1.35 kDa) were used as molecular mass markers (closed circles) to calibrate the column. The logarithm of molecular mass was plotted versus Kav (Kav=(Ve−Vo)/(Vt−Vo); Ve, elution volume; Vo, void volume; Vt, bed volume). Positions of wild-type streptavidin (wt) and streptavidin muteins are represented by solid squares. FIG. 6B. Elution profile of M4 mutein (loaded at 2 mg/ml) on the gel filtration column.
as §1

Solubility of mutein = assay type: physicochemical; conditions: at a concentration of 2 mg/ml
[5] = Degree of monomerization of non-boiled samples in SDS-PAGE / Western blot; assay type: physicochemical
Description: FIG. 3: Western blot analysis of cell culture supernatants from B. subtilis strains producing streptavidin muteins carrying a single mutation. 15 μl of non-boiled sample of culture supernatant was loaded to each lane. Samples on the left set were collected from B. subtilis strains cultured in super-rich medium without additional supplement of biotin. Samples on the right set were collected from B. subtilis strains cultured in super-rich medium with additional supplementation of biotin (20 μM). The blot was probed with polyclonal antibodies against streptavidin and developed using 4-chloro-1-napthol (Bio-Rad) as the colour development agent. […] M, molecular weight markers; wt, wild type streptavidin.
FIG. 4: Analysis of culture supernatants from B. subtilis strains producing streptavidin muteins carrying different combinations of mutations. All these strains were cultivated in super-rich medium supplemented with biotin (20 μM). The 15 μl of non-boiled samples of culture supernatants were loaded. FIG. 4A. Coomassie blue stained SDS-polyacrylamide gel. […]
Streptavidin muteins carrying a single amino-acid change at the selected site may be produced in their soluble form by B. subtilis via secretion. […] Since biotin can strengthen subunit interaction, samples were analyzed in the presence or absence of biotin (Laitinen, 2001; Gonzalez, 1999). […]

B1: M4: monomeric streptavidin quadruple mutant carrying T76R, V125R, V55T and L109T mutations (protein)
chain: MNIKKFAKQATVLTFTTALLAGGATQAFADPSKDSKAQVSAAEAGITGTWYNQLGSTFIVTAGADGALTGTYESAVGNAESRYTLTGRYDSAPATDGSGTALGWRVAWKNNYRNAHSATTWSGQYVGGAEARINTQWTLTSGTTEANAWKSTLRGHDTFTKVKPSAASIDAAKKAGVNNGNPLDAVQQ
modifications: Amino acid sequence for secretory production of streptavidin M4 in B. subtilis
notes: monomeric streptavidin quadruple mutant carrying T76R, V125R, V55T and L109T mutations
RH (nm) (Dynamic light scattering) ([1]; +biotin): 2.20 ± 0.14 nm
M (kDa) (Dynamic light scattering) ([1]; +biotin): 21.5 kDa
RH (nm) (Dynamic light scattering) ([1]; no biotin): 2.08 ± 0.31 nm
M (kDa) (Dynamic light scattering) ([1]; no biotin): 18.1 kDa
ka, on-rate [2]: 1.80 ± 0.04 × 10^4 M^−1s^−1
kd, off-rate [2]: 3.39 ± 0.02 × 10^−3 s^−1
Susceptibility to proteinase K digestion (proteinase K): completely digested
Oligomeric state after cross-linking with sulfo-EGS (SDS-PAGE) [3]: migrated as monomers
M (kDa) (Gel filtration) ([4]; +biotin): 24.54 kDa
M (kDa) (Gel filtration) ([4]; no biotin): 21.87 kDa
solubility (Solubility of mutein): excellent solubility
Monomer (percentage of streptavidin in monomeric state) ([5]; No additional biotin): 100%
Monomer (percentage of streptavidin in monomeric state) ([5]; With additional biotin (20 μM)): 100%
